Assay results taken from paper PMC4627693.

Test system: Cys-Srctide (Biotin-ZZICGEFRRR)
Assay: cross-linking

Substance: c-Src tyrosine kinase (recombinant)
- percent conversion to crosslinked product: 40% conversion in 25 minutes
